The values below come from article PMC5832863, “Solution structure and dynamics of anti-CRISPR AcrIIA4, the Cas9 inhibitor” (Scientific Reports, 2018).

The term Kd denotes a measure of binding affinity in units of concentration. Low readings indicate a tighter complex, high ones a looser complex. In general, stoichiometry N refers to a count of units in the complex or per binding partner.

Holding throughout (details): both partners purified
Assay [1] concerns the target T1, Streptococcus pyogenes Cas9 (a.a. 1-1368) (S. pyogenes, UniProt Q99ZW2 1-1368).
T1 construct: Cas9 RNA-guided endonuclease of Streptococcus pyogenes, residues 1-1368, synthetic gene in pET28b; the two states are told apart by the assay; also called SpyCas9; apo-SpyCas9; source: E. coli BL21(DE3), purified (HisTrap HP, HiTrap SP, Superdex200)
Kind of assay: ITC; sgRNA-bound SpyCas9 titrated with AcrIIA4; 25 °C; one-site binding model. (In general: ITC needs no label: the signal is the heat of the interaction.)

Assay [2] has as its target T1, Streptococcus pyogenes Cas9 (a.a. …). The assay can be described thus: ITC; apo-SpyCas9 (no sgRNA): 50 uM SpyCas9 in the cell titrated with 500 uM AcrIIA4; 25 °C; 20 mM sodium phosphate, pH 7.4, 100 mM NaCl, 5 mM BME, 0.01% NaN3; one-site binding model.
Assay [3] has the same target. The description is as above. The source holds these as a separate data set.

T1 sequence (Q99ZW2 whole entry, the tested form may be a part): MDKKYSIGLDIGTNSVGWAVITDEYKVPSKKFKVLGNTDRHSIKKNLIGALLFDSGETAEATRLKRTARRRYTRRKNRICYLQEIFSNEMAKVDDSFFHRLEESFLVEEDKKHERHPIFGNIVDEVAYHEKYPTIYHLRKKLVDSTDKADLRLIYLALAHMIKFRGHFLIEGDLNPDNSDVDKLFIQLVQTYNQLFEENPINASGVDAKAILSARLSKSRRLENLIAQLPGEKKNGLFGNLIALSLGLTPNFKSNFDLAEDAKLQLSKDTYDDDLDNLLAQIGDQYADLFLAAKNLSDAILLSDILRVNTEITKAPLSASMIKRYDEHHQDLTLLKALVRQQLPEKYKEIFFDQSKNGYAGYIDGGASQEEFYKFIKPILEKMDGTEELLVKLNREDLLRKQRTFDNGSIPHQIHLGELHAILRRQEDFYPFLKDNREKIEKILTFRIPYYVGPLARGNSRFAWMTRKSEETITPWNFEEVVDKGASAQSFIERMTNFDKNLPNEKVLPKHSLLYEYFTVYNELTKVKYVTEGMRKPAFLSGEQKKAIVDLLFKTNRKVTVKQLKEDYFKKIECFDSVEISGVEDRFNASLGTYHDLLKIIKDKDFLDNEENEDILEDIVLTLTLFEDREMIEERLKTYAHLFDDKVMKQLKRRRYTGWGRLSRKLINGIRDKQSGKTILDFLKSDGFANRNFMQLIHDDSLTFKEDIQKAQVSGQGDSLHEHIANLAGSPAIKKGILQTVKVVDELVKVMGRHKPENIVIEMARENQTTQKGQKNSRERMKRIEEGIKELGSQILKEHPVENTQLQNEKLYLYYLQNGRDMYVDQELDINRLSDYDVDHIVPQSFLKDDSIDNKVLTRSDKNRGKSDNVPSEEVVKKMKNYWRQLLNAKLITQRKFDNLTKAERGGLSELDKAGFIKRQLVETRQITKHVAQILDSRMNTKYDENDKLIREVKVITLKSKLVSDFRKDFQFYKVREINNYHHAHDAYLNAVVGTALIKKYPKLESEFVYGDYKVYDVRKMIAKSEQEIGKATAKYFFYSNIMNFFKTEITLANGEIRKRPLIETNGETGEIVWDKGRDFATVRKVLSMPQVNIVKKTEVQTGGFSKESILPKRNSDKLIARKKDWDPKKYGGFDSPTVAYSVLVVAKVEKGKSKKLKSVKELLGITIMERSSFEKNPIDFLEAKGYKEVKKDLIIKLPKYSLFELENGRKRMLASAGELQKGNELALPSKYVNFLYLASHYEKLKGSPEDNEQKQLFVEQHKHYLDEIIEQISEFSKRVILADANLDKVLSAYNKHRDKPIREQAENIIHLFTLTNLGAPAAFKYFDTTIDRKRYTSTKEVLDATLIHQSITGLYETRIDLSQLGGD

B1: Listeria monocytogenes anti-CRISPR protein AcrIIA4 (a.a. 1-87) (natural protein, Listeria monocytogenes (prophage), UniProt A0A247D711 1-87, looked up)
chain: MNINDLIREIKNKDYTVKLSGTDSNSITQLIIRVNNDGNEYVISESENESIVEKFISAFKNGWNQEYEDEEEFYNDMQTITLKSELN
notes: AcrIIA4, anti-CRISPR protein encoded by Listeria monocytogenes prophages, residues 1-87, synthetic gene; Cloned into a modified pBT7-N-His vector; also called 15N-AcrIIA4; 13C,15N-AcrIIA4; source: E. coli BL21star(DE3), purified (HisTrap, TEV cleavage, Superdex 75, MonoQ); not shown: His6, N-terminal, cleaved
In assay [1], B1 gave a Kd of 0.6 ± 0.1 nM and a dH of -10.3 ± 0.1 kcal/mol. The “stoichiometry N” value in assay [2] is 1. In assay [3], the Kd came to 4800 ± 150 nM and the dH is -11.5 ± 0.7 kcal/mol.
